This note sets out measurements from patent US20240067748A1 (NONA BIOSCIENCES SUZHOU, published 2024).

Assay [1] deals with T1, human Trop2 on cells (human, UniProt P09758 27-323).
T1 construct: whole, on cells; also called hTrop2; 293T-human Trop2 cells
T1 sequence (looked up): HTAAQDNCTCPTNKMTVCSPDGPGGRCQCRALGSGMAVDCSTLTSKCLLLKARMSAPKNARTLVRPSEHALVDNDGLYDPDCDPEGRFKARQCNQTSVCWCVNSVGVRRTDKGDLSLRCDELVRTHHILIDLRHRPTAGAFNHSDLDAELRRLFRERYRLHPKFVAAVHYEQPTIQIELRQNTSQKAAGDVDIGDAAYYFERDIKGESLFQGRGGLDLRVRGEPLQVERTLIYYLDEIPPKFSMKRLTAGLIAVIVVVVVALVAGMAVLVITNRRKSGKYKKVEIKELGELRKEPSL
Nature of the assay: flow cytometry on BxPC-3 tumor cells. On the procedure: BxPC-3 tumor cells (the Cell Bank of the Chinese Academy of Sciences, #TCHu 12) were digested with 3 mL of TrypLE, and the digestion was stopped with 7 mL of the corresponding medium. […] The cell solution was centrifuged, and the cells were washed once with PBS+[…] buffer. […] The cells were washed once with PBS+0.50% BSA. The cells were incubated at 4° C. for 1 h in the dark with 100 μL of Alexa Fluor 488 goat anti-human IgG (Life technologies, #A-11013) diluted at 1:1000, and washed twice with PBS+0.50% BSA. The cells were resuspended in 200 μL of PBS+0.50% BSA. The suspension was centrifuged at 4° C. for 5 min at 2000 rpm and tested using a FACS verse flow cytometer or NovoCyte flow cytometer (ACEA Biosciences). All procedures were performed on ice.

Assay [2] has as its target T2, mouse Trop2-his protein (Sino Biological, #50922-M08H) (mouse, UniProt Q8BGV3 25-270).
T2 construct: bought protein; also called mouse Trop2 protein; not shown: his tag
T2 sequence (looked up): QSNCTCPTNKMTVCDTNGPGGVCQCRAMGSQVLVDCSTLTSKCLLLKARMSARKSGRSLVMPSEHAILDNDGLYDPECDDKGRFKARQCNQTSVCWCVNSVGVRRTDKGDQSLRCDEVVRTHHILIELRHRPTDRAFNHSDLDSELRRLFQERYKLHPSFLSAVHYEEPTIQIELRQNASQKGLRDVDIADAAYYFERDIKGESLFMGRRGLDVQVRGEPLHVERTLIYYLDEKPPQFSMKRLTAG
Kind of assay: ELISA, plate coated with mouse Trop2-his protein, anti-human IgG (H+L)-HRP, OD450 nm. As to the method: An ELISA plate was coated with 100 μL of 1 μg/mL mouse Trop2-his protein (Sino Biological, #50922-M08H) in PBS at 4° C. overnight. The plate was blocked with 200 μL of PBST (PBS+0.05% tween 20)+2% BSA at 37° C. for 1 h. The plate was washed 4 times with PBST. 100 μL of Trop2 antibody diluted in a gradient (5-fold dilution, starting concentration: 33.33 nM) was added to the ELISA plate and the plate was incubated at 37° C. for 1 h. The plate was washed 4 times with PBST. 100 μL of anti-human IgG (H+L)-HRP (Sigma, #A8667) diluted in 1:4000 was added and the plate was incubated at 37° C. for 1 h. The plate was washed 4 times with PBST. 100 μL of TMB substrate (Invitrogen, #88-7025-88) was added and the plate was incubated at room temperature for 5 min, and then 50 μL of stop buffer (BBI life sciences, #E661006-0200) was added to stop the reaction. The OD450 nm reading was recorded using a microplate reader (Perkin Elmer, EnSpire).

The target of assay [3] is T1, human Trop2 on cells. Nature of the assay: flow cytometry on 293T-human Trop2 cells. In short, it runs like this: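 Cells at 1×10⁶/mL in PBS were incubated for 1 h, washed in PBS+0.5% BSA, then stained with Alexa Fluor 488 anti-human IgG for 1 h at 4 °C. Cell-bound fluorescence was measured by flow cytometry, with all steps on ice.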
Assay [4] addresses T3, monkey Trop2 protein (Sino Biological, #90893-C08H) (monkey, UniProt A0A2K5UE71 27-274).
T3 construct: bought protein; also called monkey Trop2 protein antigen (His tag)
T3 sequence: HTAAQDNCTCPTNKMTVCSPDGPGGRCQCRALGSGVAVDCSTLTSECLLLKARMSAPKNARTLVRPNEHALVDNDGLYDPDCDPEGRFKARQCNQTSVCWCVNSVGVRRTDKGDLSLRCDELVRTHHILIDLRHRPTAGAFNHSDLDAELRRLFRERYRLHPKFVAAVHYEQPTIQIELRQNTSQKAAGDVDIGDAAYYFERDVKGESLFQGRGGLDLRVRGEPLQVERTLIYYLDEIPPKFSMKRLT
Nature of the assay: BLI, Octet RED96, AHC sensor. In a few lines:
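Antibody at 40 nM is tested against captured human or monkey Trop2, which is loaded at 200 nM. Binding lasts 3 min and washout 5 min, both at 30° C in PBS pH 7.4 containing BSA and Tween 20.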

B1: PR001162 (antibody, human IgG1, kappa, V domains shown)
VH: QVQLVESGGGVVQPGTSLRLSCVASGFTFSNDGMHWVRQAPGMGLEWVAIMWFDGGSKYYADSVKGRFTISRDNSKNTLYLQMNNLRAEDTAVYYCARDHPHYLGSGSFDYWGQGTLVTVSS
VL: EIVLTQSPATLSLSPGERATLSCRASQSVSSYLAWYQQKPGQAPRLLIYDASNRATGIPARFSGSGSGTDFTLTISSLQAEDVAVYYCQQYYSTPYTFGQGTKLEIKR
notes: fully human IgG1/kappa; also called antibody No. (23)
As to B1, in the assay with human Trop2 on cells [1], the midpoint of the response, the EC50, lay at 1.12 nM; the “Maximum MFI value” turned out to be 9110 MFI; the “fold lower EC50 than the reference antibody hRS7” value is approximately 2 fold. The binding result in assay [2] is reported as “no binding”. Further, in the assay with human Trop2 on cells [3], the EC50 was found to be 0.158 nM, the “Maximum (MFI)” value amounted to 5850 MFI, the Top % stood at 90.2% and the “fold lower EC50 than the reference antibody hRS7” value is approximately 3 fold. In assay [4], this molecule had an equilibrium dissociation constant (Kd) of 3.66 nM, a Response of 0.37, a koff of 0.000732 s⁻¹ and a kon of 200000 M⁻¹ s⁻¹.
